Patent publication CN117736316A

Target: HIS-SFTSV-NP抗原 (recombinant SFTSV NP antigen expressed in E. coli BL21(DE3) from pET-30a) (新布尼亚病毒 (SFTSV))
Assay: indirect ELISA, NP antigen coated

B1: 单克隆抗体anti-SFTSV-NP-mab1 (antibody, V domains shown)
VH: EVQLEESGGGLVQPGGSRKLSCAVSGFTFSNFGIHWVRQAPEKGLEWVAYISSGGTTIYYADTVKGRFTISRDNPMNTLFLQMTSLRSEDTAMYHCARSDYFGMMDYWGQGTSVTVSS
VL: DIVITQTPSSLSASLGDRVTISCRASQDIRNYLNWYQQKPDGTVKLLVYYTSRLHSGVPSRFSGSGSGTDFSLTISNLEQEDIATYFCQQAHTLLTFGAGTKLEIK
  工作浓度: 15.6 ng/mL
  检测限 (of NP protein): 1.95 ng/mL
